Patent US7361348B2, “Immunogenic glycopeptides, screening, preparation and uses” (priority 2000, dated 2008)
Entries after “also recorded” stand apart in the source; their conditions may differ. Like-named read-outs stand apart in the source and are kept apart here.

Legend:
[1] = test system: guinea pigs immunized with live BCG; type: in vivo, guinea pig; conditions: for loss of antigenic activity during digestion with α-mannosidase: 0.2 μg intradermally
[2] = test system: guinea pigs immunized with heat-inactivated BCG; type: in vivo, guinea pig
[3] = test system: T lymphocytes; experiment: in vitro lymphocyte proliferation assay; type: cell-based
Source text: The conditions of the assay are those described in Horn et al., mentioned above.

[4] = test system: guinea pigs immunized with the plasmids pAG831 or pAG832; type: in vivo, guinea pig; conditions: antigen 0.2 μg in 100 μl
[5] = test system: specific CD4+ T lymphocytes; conditions: cited from earlier work
[6] = test system: guinea pigs immunized with the Apa fusion peptide; type: in vivo, guinea pig
[7] = guinea pigs immunized with live BCG

For “Lip: Mannosylated glycopeptide purified from M. tuberculosis culture, derived from the protein encoded by the Rv1796 gene (SEQ ID NO:3) (TIPTTETPPPPQTVTLSPVPPQTVTVIPAPPPEEG; not fully specified; mannosylated; MOD_RES (4)..(4) glycosidic bond to a di- or a tri-saccharide; listed as Mycobacterium tuberculosis)”, the “delayed-type hypersensitivity of the peptide treated with subtilisin” value ([1]; 0.02 μg in 0.1 ml, live BCG) was “abolishes the antigenic activity; also recorded: negative”, the “delayed-type hypersensitivity of the peptide treated with α-mannosidase” value ([1]; 0.02 μg in 0.1 ml, live BCG) was “negative” and the “antigenic activity after deglycosylation” value ([1]; after α-mannosidase 24 h at 37° C., live BCG) was “less than 30 000 TU/mg”. For the same molecule, the “activity relative to the standard purified proteins from M. tuberculosis (PPD)” value ([1]; at an equivalent amount of proteins, Lip 0.02 μg vs PPD 0.25 μg in 0.1 ml) was “at least 10 times”, the antigenic activity [1, 7] was 1 000 000 TU/mg and the “delayed-type hypersensitivity reaction (in words)” value [1, 7] was “very active”. For the same molecule, the “loss of the antigenic activity by action of α-mannosidase” value ([1]; α-mannosidase 24 h at 37° C.) was “more than 95%”, the “delayed-type hypersensitivity reaction (in words)” value [2] was “relatively inactive” and the T-lymphocyte proliferation ([3]; T lymphocytes treated with an antibody directed against CD4 molecules) was “marginal”. The T-lymphocyte proliferation ([3]; glycopeptide treated with α-mannosidase) was “marginal” and the T-lymphocyte proliferation ([3]; native Lip) was “dependent on the peptide concentration”.

B1: Native Apa: Mannosylated protein secreted by M. tuberculosis, product of the Rv 1860 gene, purified from culture supernatant (protein, UniProt P9WIR7 40-325, looked up)
Alanine and proline-rich …: DPEPAPPVPTTAASPPSTAAAPPAPATPVAPPPPAAANTPNAQPGDPNAAPPPADPNAPPPPVIAPNAPQPVRIDNPVGGFSFALPAGWVESDAAHFDYGSALLSKTTGDPPFPGQPPPVANDTRIVLGRLDQKLYASAEATDSKAAARLGSDMGEFYMPYPGTRINQETVSLDANGVSGSASYYEVKFSDPSKPNGQIWTGVIGSPAANAPDAGPPQRWFVVWLGTANNPVDKGAAKALAESIRPLVAPPPAPAPAPAEPAPAPAPAGEVAPTPTTPTPQRTLPA
modifications: native mannosylated
notes: Mannosylated protein secreted by M. tuberculosis, product of the Rv 1860 gene, purified from culture supernatant
In the case of B1, the “delayed-type hypersensitivity / CD4+ T lymphocyte response (in words)” value [4] is reported as “equivalent”, the “loss of antigenic activity during digestion with α-mannosidase” value ([1]; digestion 1 h, tuberculin titre vs PPD standard) is reported as 66% and the “loss of antigenic activity during digestion with α-mannosidase” value ([1]; digestion 4 h (3 to 6 mannose residues remain)) is reported as 86%. The “delayed-type hypersensitivity reaction (in words)” value [1, 7] was “show a delayed-type hypersensitivity reaction only in response to the native Apa; also recorded: considerable; also recorded: only the glycosylated native Apa is antigenic”, the “loss of antigenicity on demannosylation” value ([5]; α-mannosidase, TFMS or expression in E. coli) was 100 fold and the “delayed hypersensitivity sensitization (in words)” value [6] was “identical”.

B2: Deglycosylated Apa: deglycosylated Apa protein prepared as described in example 1 (α-mannosidase digestion) (protein, UniProt P9WIR7 40-325, looked up)
Alanine and proline-rich …: B1 Alanine and proline-rich …
modifications: deglycosylated
With B2 the “delayed-type hypersensitivity / CD4+ T lymphocyte response (in words)” value [4] was “of the same strength as the responses observed with the glycosylated native antigen”, the “delayed-type hypersensitivity reaction (in words)” value [1, 7] was “very weak or absent” and the “delayed hypersensitivity sensitization (in words)” value [6] was “identical”.

B3: E. Coli recombinant Apa: deglycosylated recombinant Apa produced in E. coli (protein, UniProt P9WIR7 40-325, looked up)
Alanine and proline-rich …: B1 Alanine and proline-rich …
modifications: non-glycosylated, produced in E. coli
For B3, the “delayed-type hypersensitivity / CD4+ T lymphocyte response (in words)” value [4] was “of the same strength as the responses observed with the glycosylated native antigen”, the “delayed-type hypersensitivity / CD4+ T lymphocyte response (in words)” value ([4]; listed as E. coli rApa) was “equivalent” and the “delayed-type hypersensitivity reaction (in words)” value ([1]; guinea pigs immunized with live BCG, listed as molecules produced in E. coli) was “very weak or absent”. The “delayed-type hypersensitivity reaction (in words)” value ([1]; guinea pigs immunized with live BCG, listed as non-glycosylated recombinant Apa produced in E. coli) was “no reaction or develop a greatly decreased reaction”.

B4: glycosylated Apa produced by Mycobacterium smegmatis: Glycosylated Apa produced by M. smegmatis, overall mannose composition slightly different from M. tuberculosis Apa (protein, UniProt P9WIR7 40-325, looked up)
Alanine and proline-rich …: B1 Alanine and proline-rich …
modifications: glycosylated, produced in M. smegmatis
For B4, the “decrease of antigenic activity versus Apa produced by M. tuberculosis” value [5] is given as “approximately 10 fold”.
